Like-named read-outs stand apart in the source and are kept apart here.
Legend:
Hen-Egg-Lysozyme = target: T1, Hen-Egg-Lysozyme (hen, UniProt P00698 19-147); experiment: SPR (Biacore 2000), biotinylated antigen on streptavidin chip, purified VH
T1 construct: Biotinylated for Biacore; also called HEL
Experimental: (§1) The affinities of VH clones were measured using surface plasmon resonance (using a Biacore2000 instrument; GE Healthcare). For this purpose, biotinylated antigen diluted in PBS was injected over a streptavidin (SA) sensor chip (Biacore AB). Serial dilutions of purified VH were injected over the flow cell containing the corresponding target antigen. Equilibrium dissociation constants were calculated using the BIAevaluation 4.1 software package (Biacore AB).
(§2) The antigen-specific VH domains were expressed and purified. Affinity measurements were performed by surface plasmon resonance on a Biacore 2000 instrument.

protein A [1] = target: T2, protein A (UniProt P38507 37-477); experiment: Heat/Cool phage ELISA on protein A; signal after 80 C 10 min / 4 C 10 min as % of untreated sample
T2 construct: also called Protein A superantigen
Experimental: (§3) The aggregation-resistance of clones was analyzed by measuring retention of signal after heat incubation in a phage ELISA format (McCafferty et al., 1990; Jespers et al., 2004). Wells of a Nunc Maxisorp Immuno-plate were coated overnight with protein A at a concentration of about 5 μg/ml in phosphate-buffered saline (PBS). The plate was washed once with PBS and blocked with about 4% (w/v) milk powder diluted in PBS (MPBS). Single colonies were picked from agar plates and grown overnight in 2×TY medium (containing about 16 g/L tryptone; about 10 g/L yeast extract; about 5 g/L NaCl, pH 7.0) supplemented with about 15 μg/ml tetracycline shaking at about 30° C. Cells were removed by centrifugation and phages were biotinylated directly in the culture supernatant by adding biotin-PEO₄-N-hydroxysuccinimide (Pierce; about 50 μM final concentration). For heat selection, supernatant was first incubated at about 80° C. for about 10 min and then at about 4° C. for about 10 min. Supernatant was added to the blocked ELISA wells. After three washes with PBS, bound phage particles were detected using an Extravidin-HRP conjugate (Sigma) and 3,3′,5,5′-tetramethylbenzidine (TMB) substrate. Absorbance was calculated by subtracting measurements at 450 and 650 nm.
Antigen-specific VH domains were selected from the Garvan-2 library by phage display against recombinant protein antigen. After selection, the domains were evaluated for aggregation-resistance using the “Heat/Cool” assay described in Example 1.2, and binding to either or protein A superantigen and or recombinant antigen.

human prolactin receptor = target: T3, human prolactin receptor (human, UniProt P16471 25-234); experiment: SPR (Biacore 2000), biotinylated antigen on streptavidin chip, purified VH
T3 construct: also called hPRLR; PRLR (Prolactin Receptor)
T3 sequence (looked up): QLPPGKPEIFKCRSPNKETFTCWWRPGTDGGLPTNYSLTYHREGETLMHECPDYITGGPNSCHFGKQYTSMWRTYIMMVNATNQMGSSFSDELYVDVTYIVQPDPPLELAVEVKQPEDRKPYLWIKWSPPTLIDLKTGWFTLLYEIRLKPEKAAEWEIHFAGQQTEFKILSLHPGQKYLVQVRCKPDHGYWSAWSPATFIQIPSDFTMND
Experimental: as §1, §2

protein A [2] = target: T2, protein A; experiment: Heat/Cool phage ELISA: phage-displayed scFv, 80 C 10 min then 4 C 10 min, captured on coated protein A; signal as % of untreated sample
Experimental: as §3, with “Cells were removed by centrifugation and phages were biotinylated directly in the culture supernatant by adding biotin-PEO₄-N-hydroxysuccinimide (Pierce; about 50 μM final concentration). For heat selection, supernatant was first incubated at about 80° C. for about 10 min and then at about 4° C. for about 10 min. Supernatant was added to the blocked ELISA wells.” left out
The DP47-CDR1 mutants described above were paired with a common single variable light chain (VL; SEQ ID NO: 3) via a linker (SEQ ID NO: 4) in a scFv format (see the Materials and Methods section for full experimental details). […] Correctly folded scFv were captured by protein A ELISA and the absorbance signal of the treated sample was calculated as a percentage of the untreated sample.

protein A [3] = target: T2, protein A; experiment: Heat/Cool phage ELISA: phage-displayed VH, 80 C 10 min then 4 C 10 min, captured on coated protein A; signal as % of untreated sample
Experimental: as §3, with “nm. […]” for “nm.”

protein A [4] = target: T2, protein A; experiment: as above; remark: listed apart in the source
Experimental: as §3, with “Cells were removed by centrifugation and phages were biotinylated directly in the culture supernatant by adding biotin-PEO₄-N-hydroxysuccinimide (Pierce; about 50 μM final concentration). For heat selection, supernatant was first incubated at about 80° C. for about 10 min and then at about 4° C. for about 10 min. Supernatant was added to the blocked ELISA wells.” left out
To identify additional residues in CDR1 that confer aggregation-resistance on VH, surface-exposed residues of DP47 between positions 26 to 35 (numbering according to the Kabat numbering system) were substituted for aspartic acid (D) or glutamic acid (E). […] Correctly folded VH were captured by protein A ELISA and the absorbance signal of the treated sample was calculated as a percentage of the untreated sample.

protein A [5] = target: T2, protein A; experiment: as above; remark: listed apart in the source
Experimental: as §3, with “For heat selection, supernatant was first incubated at about 80° C. for about 10 min and then at about 4° C. for about 10 min. Supernatant was added to the blocked ELISA wells.” left out
VH domains were produced comprising negatively charged amino acids at positions 28 and/or 35 in CDR1 of DP47 and at least one other position, as set out in Table 7. Aggregation-resistance of the VH domains was assessed using the “Heat/Cool” assay as described in Example 1.2.

[6] = target: T4, human tumor necrosis factor α (human, UniProt P01375 77-233); experiment: SPR (Biacore), biotinylated hTNF on streptavidin chip, purified VH injected from 4 µM down
T4 construct: also called hTNF; human TNF
T4 sequence (P01375 77-233 limits assumed): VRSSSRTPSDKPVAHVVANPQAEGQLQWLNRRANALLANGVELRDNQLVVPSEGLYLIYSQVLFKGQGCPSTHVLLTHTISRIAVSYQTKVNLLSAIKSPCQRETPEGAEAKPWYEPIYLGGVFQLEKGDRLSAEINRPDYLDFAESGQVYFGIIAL
Experimental: The affinities of VH clones G07 (anti-hTNF; SEQ ID NO: 5) and G11 (anti-mIL-21; SEQ ID NO: 6) were measured using surface plasmon resonance (using a Biacore machine; GE Healthcare). For this purpose, biotinylated antigen diluted in PBS was injected over a streptavidin (SA) sensor chip (Biacore AB). Serial dilutions of purified VH (with concentrations ranging from about 0.125 to 4 μM) were injected at a flowrate of about 20 μl/min over the flow cell containing the corresponding target antigen. Equilibrium dissociation constants were calculated using the BIAevaluation 4.1 software package (Biacore AB).
Two clones selected for their binding to human tumour necrosis factor (hTNF) or mouse interleukin 21 (mIL-21) were isolated from the Garvan-I libraries, as detailed above (see Materials and Methods section). […] Biacore affinity measurements of anti-human TNF clone G07 (SEQ ID NO: 5) and anti-mouse IL-21 clone G11 (SEQ ID NO: 6) were performed. Serial dilutions of each purified protein, starting at 4 μM, were run on a streptavidin (SA) chip coated with biotinylated hTNF and mIL-21, respectively.

T1 sequence (P00698 19-147): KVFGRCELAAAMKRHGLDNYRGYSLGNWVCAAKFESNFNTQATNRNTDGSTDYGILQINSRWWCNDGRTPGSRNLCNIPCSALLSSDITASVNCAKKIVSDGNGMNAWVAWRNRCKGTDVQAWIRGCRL

B1: VHHEL_G08 (anti-HEL VH) (other)
VH: EVQLLESGGGLVQPGGSLRLSCAASGFRISDEDMGWVRQAPGKGLEWVSYIDNNGYSTYYADSVKGRFTISRDNSKNTLYLQMNSLRAEDTAVYYCAKKQYGYQNGGFDYWGQGTLVTVSS
Kd (Hen-Egg-Lysozyme): 65 nM | Retained binding (%) after heating (protein A [1]): 83.8%

B2: VHPRLR_C02 (anti-hPRLR VH) (other)
VH: EVQLLESGGGLVQPGGSLRLSCAASGFRFADEDMGWVRQAPGKGLEWVSDISGDGYSTYYADSVKGRFTISRDNSKNTLYLQMNSLRAEDTAVYYCAKLPPVYLGGAFDYWGQGTLVTVSS
notes: Human VH single domain antibody from the Garvan-2 library
Kd (human prolactin receptor): < 100 nM | Retained binding (%) after heating (protein A [1]): 98.8%

B3: scFv DP47 VH SYA31-33DED - linker - common VL (scFv)
scFv: QVQLLESGGGLVQPGGSLRLSCAASGFTFSDEDMSWVRQAPGKGLEWVSAISGSGGSTYYADSVKGRFTISRDNSKNTLYLQMNSLRAEDTAVYYCAKSYGAFDYWGQGTLVTVSSGGGGSGGGGSGGGGSTDIQMTQSPSSLSASVGDRVTITCRASQSISSYLNWYQQKPGKAPKLLIYAYSDLQSGVPSGFSGSGSGTDFTLTISSLQPEDFATYYCQQLMTHPTTFGQGTKVEIKR
notes: also called SYA31-33DED (scFv)
Retained binding to protein A (protein A [2]): 45%

B4: DP47 VH G52aD (other, name in Kabat numbering)
VH: QVQLLESGGGLVQPGGSLRLSCAASGFTFSSYAMSWVRQAPGKGLEWVSAISDSGGSTYYADSVKGRFTISRDNSKNTLYLQMNSLRAEDTAVYYCAKSYGAFDYWGQGTLVTVSS
Retained binding to protein A (%) (protein A [3]): 2.1%

B5: VHHEL_H04 (anti-HEL VH) (other)
VH: EVQLLESGGGLVQPGGSLRLSCAASGFRFDAEDMGWVRQAPGKGLEWVSSIYGPSGSTYYADSVKGRFTISRDNSKNTLYLQMNSLRAEDTAVYYCAKYTSPPQNHGFDYWGQGTLVTVSS
notes: as for B2
Kd (Hen-Egg-Lysozyme): 28 nM | Retained binding (%) after heating (protein A [1]): 87.8%

B6: HEL4 VH (other)
VH: QVQLLESGGGLVQPGGSLRLSCAASGFRISDEDMGWVRQAPGKGLEWVSSIYGPSGSTYYADSVKGRFTISRDNSKNTLYLQMNSLRAEDTAVYYCASALEPLSEPLGFWGQGTLVTVSS
Retained binding (%) after heating (protein A [1]): 88.1% | Retained binding to protein A (%) (protein A [4]): 80.2% | Retained binding to protein A (%) (protein A [3]): 80.8% | Retained binding to protein A (%) (protein A [5]): 87.7%

B7: VHhTNF_G07 (anti-hTNF VH) (other, not shown: small tags and cut ends)
VH: QVQLLESGGGLVQPGGSLRLSCAASGFRISDEDMGWVRQAPGKGLEWVSSIYGPSGSTYYADSVKGRFTISRDNSKNTLYLQMNSLRAEDTAVYYCASKEDYDTYNWGFWGQGTLVTVSS
notes: also called clone G07; anti-human TNF clone G07
Kd [6]: 1860 nM

B8: scFv HEL4 VH - linker - common VL (scFv)
scFv: QVQLLESGGGLVQPGGSLRLSCAASGFRISDEDMGWVRQAPGKGLEWVSSIYGPSGSTYYADSVKGRFTISRDNSKNTLYLQMNSLRAEDTAVYYCASALEPLSEPLGFWGQGTLVTVSSGGGGSGGGGSGGGGSTDIQMTQSPSSLSASVGDRVTITCRASQSISSYLNWYQQKPGKAPKLLIYAYSDLQSGVPSGFSGSGSGTDFTLTISSLQPEDFATYYCQQLMTHPTTFGQGTKVEIKR
notes: also called HEL4 (scFv)
Retained binding to protein A (protein A [2]): 56%

From patent publication US20160145328A1 (published 2016)
